Test results: patent publication US12534533B2, “Anti-chemokine like receptor 1 humanized antibodies and their therapeutic applications” (OSE IMMUNOTHERAPEUTICS, priority 2019, dated 2026)

Columns and labels:
Hepa 1.6 cells = test: Hepatocarcinoma model (HCC), orthotopic murine hepatoma; format: in vivo, mice; settings: anti-CMKLR1 0.8 mg/kg three times per week, anti-PD1 8 mg/kg, 2 weeks; followed sixty days; FIG. 20
Protocol: FIG. 20. Effect of an anti-CMKLR1 antibody on a Hepatocarcinoma mice model (HCC model). Anti-tumor effect of anti-CMKLR1 antibody (2G1, 0.8 mg/kg) i.p. administration three times a week for 2 weeks in combination (▴) or not (●) with two injections on day 4 and 8 of anti-PD1 mAb (RMP1-14 clone, 8 mg/kg) or with injections (twice a week) of anti-PD-1 antibody alone (Δ). Mice have been treated during 2 weeks in an orthotropic model of murine hepatoma (2.5.10^6 of Hepa 1.6 cells injected through the portal vein on day 0). Isotype control antibody was used at 0.8 mg/kg three times a week for 2 weeks. Mice response were considered partial (PR) when mice survive few days to 1 month after stop of treatment or complete (CR) when mice survive over 1 month or cured when they survive three times longer than the time necessary to all control mice dye.
Method: Mice were anesthetized with a cocktail of xylazine/ketamine. After a laparotomy, tumoral Hepa 1.6 cells were injected in PBS through the portal vein (2.5·10^6 cells/100 μL) in PBS. The treatment was started 4 days after tumor injection. The anti-CMKLR1 antibody (2G1clone) and the hIgG1 istotype control were injected at 0.8 mg/kg three times per week during 2 weeks. The anti-PD1 monoclonal antibody was injected twice a week during 2 weeks intraperitoneally in PBS (8 mg/kg). […]

[1] = target: T1, CMKLR1 peptide (loop EL3 of CMKLR1, SEQ ID No: 60) (Homo sapiens, UniProt Q99788); test: ELISA binding on CMKLR1 peptide; settings: compared to isotype control; FIG. 12
T1 sequence (Q99788 275-307 limits assumed): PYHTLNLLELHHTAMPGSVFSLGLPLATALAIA
Protocol: FIG. 12. Binding analysis of the anti-CMKLR1 antibody on a CMKLR1 peptide by ELISA. The binding of the 2G1 antibody (□) on the CMKLR1 EL3 loop (SEQ ID No: 18) was compared to the isotype control antibody (3G8) (x) by measuring the OD at 450 nm by ELISA.
CMKLR1 peptide (273NH2-[…]-COOH305) (SEQ ID No: 60) (5 μg/ml) was coated in borate buffer overnight. Saturation was performed with PBS-Tween 0.1%-Gelatin 0.25% for 2 hours at 37° C. Then, 2G1 or hIgG1 antibodies were added at different concentrations for 2 hours at 37° C. […] The colorimetric reaction was read with TECAN.

colitis induced by TNBS = test: acute inflammatory colitis model induced by TNBS; format: in vivo, mice; settings: RvE1 1 μg per mouse daily, 2G1 10 μg per mouse; FIG. 3
Protocol: FIG. 3. Effect of an anti-CMKLR1 antibody on a mice acute inflammatory colitis model induced by TNBS. Mice received 200 μL of the haptenating agent TNBS at 5% in 50% ethanol on day 0 and then were injected with isotype control hIgG1 (10 μg per mouse) (x), RvE1 (1 μg per mouse) daily (●), or 2G1 antibody (10 μg per mouse) three times (□) for 5 days, or non-treated (wild type animals) (▴). Mice were sacrificed colon length was measured in each condition.
Colitis was induced in 8-10 weeks-old-C57Bl/6 male mice by intrarectal injection of 200 μL of the haptenating agent TNBS at 5% in 50% ethanol on day 0. Treatments were injected intra-peritoneally; RvE1 (1 μg per mouse) daily for three days, or 2G1 antibody (10 μg per mouse) twice for 3 days. Colitis follow-up consisting of body weight and stool score (0: normal stool; 4: blood in stool) parameters were performed daily (data not represented). When mice are euthanized, colon length representing the pathology severity was measured.

[2] = tested on: PMN from healthy volunteers or ANCA patients; test: Neutrophils transmigration through endothelial monolayer (HDMEC transwell); format: cell-based, human
Protocol: Endothelial cells were coated and +/−activated with 100 U/mL of TNFa overnight. Then PMN were added with or without TNFa at 100 U/mL and Ab for two hours. The transmigrated PMN were collected and analyzed by flow cytometry.
Human endothelial cells (HDMEC) were incubated for 24 h in the transwell coated with gelatin and activated overnight with TNF-alpha at 100 U/mL or without inflammatory conditions. Then, PMN from healthy volunteers or ANCA patients were incubated in transwell containing the monolayer of HDMEC for 4 hours. Antibodies (Iso Ctrl and 2G1) were added at 10 μg/mL+/−TNF-alpha at 100 U/mL during the 4 hours of the transmigration assay. The lower transmigrated part of the transwell was collected and the transmigrated PMN were counted by flow cytometry using counting beads.

[3] = target: T2, CMKLR1 receptor (CHO-K1 CMKLR1 cells) (Homo sapiens, UniProt Q99788); test: competition assay, Chemerin-dependent beta-arrestin recruitment by CMKLR1 receptor; format: cell-based; settings: antibody 1 μM to 1 nM, Chemerin 2 or 6 nM; FIG. 18B
T2 construct: host or cells: CHO-K1
T2 sequence (Q99788 1-373): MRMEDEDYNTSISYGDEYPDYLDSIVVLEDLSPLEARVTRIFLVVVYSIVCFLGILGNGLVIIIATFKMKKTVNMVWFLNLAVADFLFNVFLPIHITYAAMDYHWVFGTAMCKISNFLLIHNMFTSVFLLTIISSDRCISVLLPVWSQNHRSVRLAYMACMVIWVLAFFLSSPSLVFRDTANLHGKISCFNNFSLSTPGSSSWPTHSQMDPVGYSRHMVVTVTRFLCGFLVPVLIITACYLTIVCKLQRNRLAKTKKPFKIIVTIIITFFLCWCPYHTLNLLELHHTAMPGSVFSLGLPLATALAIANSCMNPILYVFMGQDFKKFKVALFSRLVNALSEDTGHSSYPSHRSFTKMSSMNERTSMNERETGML
Protocol: The day before the assay, CHO-K1 CMKLR1 cells (Discover'X ref 93-0313E2) were plated in pre-warmed cell reagent then plated in a 96-well plate at 100 μl/well of cells as (Discover'X ref 15-103) and incubated […] at 37° C., in a 5% CO2 humidified incubator. The anti-CMLKR1 antibody was diluted (22× in 7-point series of 3-fold dilutions from 1 μM to 1 nM) and cells were incubated 30 min at 37° C. with the antibody. […] The luminescence was measured after Working Detection Solution addition to the cells with a plate reader with 0.5 s integration.

B1: 2G1: parental chimeric anti-CMKLR1 antibody: heavy chain variable domain SEQ ID No. 37, light chain variable domain SEQ ID No. 49 (antibody, V domains shown)
VH: EVQLVASGGGLVQPGGSLKLSCAASGFTFSSYGMSWVRQTPDRRLELVATINRYGGSTYYPDSVKGRFTISRDNAKNTLYLQMSSLKSEDTAMYYCPRLIYYGNEGDSWGQGTTLTVSS
VL: QIVLTQSPAIMSASPGEKVTMTCSASSSVSFMHWYQQKSGTSPKRWIYDTTKLTSGVPARFSGSGSGTFYSLTISSMEAEDAATYYCQQWNSKPPLTFGPGTKLELKR
Hepa 1.6 cells
  survival rate (treated animals with prolonged survival): 15%
[1]
  binding on the CMKLR1 EL3 loop peptide (OD at 450 nm): able to bind the polypeptide forming the loop EL3 of CMKLR1
Colitis induced by TNBS
  colon length: the same as normal animal
[2]; 10 μg/mL, compared to control compounds, FIG. 28A
  transmigration capability of neutrophils: lower transmigration capability
[2]; PMN and endothelial cells activated with TNFa, healthy volunteers and patients, FIG. 28B
  PMN transmigration through endothelial monolayer under inflammatory condition: avoids PMN transmigration
[3]
  chemerin-dependent activation of the beta-arrestin: did not significantly modify chemerin-dependent activation of the beta-arrestin
